In article PMC3182237, “Downregulation of the Hsp90 System Causes Defects in Muscle Cells of Caenorhabditis Elegans” (PLoS ONE, 2011):
One block for each binder: values may come before it.

Assays:
Conditions in all cases: both partners purified
DAF-21 [1] = biological target: T1, DAF-21 (C. elegans, UniProt Q18688 1-702); assay: AUC; sedimentation velocity with fluorescence detection; fluorescein-labelled cofactor 300 nM, DAF-21 or variant 6 µM; no nucleotide; 20 to 22°C, 42.000 r.p.m.; dc/dt analysis
T1 construct: DAF-21, the Hsp90 homolog of Caenorhabditis elegans; also called Hsp90; wt-DAF-21; source: E. coli BL21-CodonPlus (DE3)-RIL, purified (HisTrap FF, ResourceQ, Superdex SEC); not shown: His tag (from the vector pET28b)

E292K-DAF-21 [2] = biological target: T2, E292K-DAF-21 (C. elegans, UniProt Q18688 1-702, E292K); assay: as above
T2 construct: DAF-21, the Hsp90 homolog of Caenorhabditis elegans, with the point mutation of the allele daf-21(p673); The mutation occurs in the nematode strain JT6130 (daf-21(p673)); The recombinant variant was made from the daf-21 cDNA; also called E292K variant; DAF-21 of daf-21(p673), strain JT6130; source: E. coli BL21-CodonPlus (DE3)-RIL, purified (HisTrap FF, ResourceQ, Superdex SEC); not shown: His …

DAF-21 [3] = biological target: T1, DAF-21; assay: AUC; sedimentation velocity with fluorescence detection; fluorescein-labelled cofactor 300 nM, DAF-21 or variant 6 µM; with 4 mM AMP-PNP; 20 to 22°C, 42.000 r.p.m.; dc/dt analysis
E292K-DAF-21 [4] = biological target: T2, E292K-DAF-21; assay: as above

binding result (DAF-21 [1]): binds | binding result (E292K-DAF-21 [2]): binds
B1: STI-1, fluorescein-labelled (natural protein, C. elegans, UniProt O16259 1-320, looked up)
chain: MTDAAIAEKDLGNAAYKQKDFEKAHVHYDKAIELDPSNITFYNNKAAVYFEEKKFAECVQFCEKAVEVGRETRADYKLIAKAMSRAGNAFQKQNDLSLAVQWFHRSLSEFRDPELVKKVKELEKQLKAAERLAYINPELAQEEKNKGNEYFKKGDYPTAMRHYNEAVKRDPENAILYSNRAACLTKLMEFQRALDDCDTCIRLDSKFIKGYIRKAACLVAMREWSKAQRAYEDALQVDPSNEEAREGVRNCLRSNDEDPEKAKERSLADPEVQEILRDPGMRMILEQMSNDPGAVREHLKNPEIFQKLMKLRDAGVIQMR
modifications: 5-carboxyfluorescein (N-succinimidyl ester) at lysine residues
notes: STI-1, TPR-containing cofactor of Hsp90 in Caenorhabditis elegans; also called labelled STI-1; source: E. coli BL21-CodonPlus (DE3)-RIL, purified (HisTrap FF, ResourceQ, Superdex SEC); not shown: His tag (from the vector pET28b)

binding result (DAF-21 [3]): binds | binding result (E292K-DAF-21 [4]): binds
B2: Cep23 (ZC395.10), fluorescein-labelled (natural protein, C. elegans, UniProt Q23280 1-175, looked up)
chain: MAKQPTVLWAQRESLVYLTIEVDEAKIEELKGEGNKLHFQGSSKTDKYEATLEFFDEIDPASVKHTGSSTRVVEITVQKKTPAWWPRLLQNKGKVHWLKVDFGKWKDEDEDDEAEDAGAGIGGGMANGFDLNQYMSQMGGAGGADFGGLEDDEEDDDMPDLEDNEEEEGKNGTRA
modifications: 5-carboxyfluorescein (N-succinimidyl ester) at lysine residues
notes: Cep23, the p23 cofactor of Hsp90 in Caenorhabditis elegans (ZC395.10); also called Labelled Cep23; source: E. coli BL21-CodonPlus (DE3)-RIL, purified (HisTrap FF, ResourceQ, Superdex SEC); not shown: His tag (from the vector pET28b)
